In the DeepSol protein solubility set:

Assay: soluble on expression in E. coli; label from the status in PepcDB or PDB records

Question: For “MAGDPMETLLIQQTEKSNKFWKIVVKEKDYVVFYGKIGTAGSVKAKEFETEEECMNEANKLVASKRKKGYIDPLPGEDYIKEKTITEEEFWELLHRAKTKGEDQEEQIEWLTSHLAKRTVHEIVAFDTHMHSLLKDSYTSRLWAAAYIIMGGCSDDTFDYFRGWLLYQGKETYEACIEDPERLIPVLENLSEYDVPEIEELSLYFGFTVYAEKTGDEDDTYFTLYHVLSNEEFDDVDFEFDWNEDDEEGLKKVFPRLWEMYGEEPIEWLEHHHHHH”, which “soluble on expression in E. coli” value is on record?
Answer: soluble

Question: Which “soluble on expression in E. coli” value does the source give for “MAGDPMLLTGTLKREAGNKMGQKPKIAIFGGGTGLSVLLRGLKHKPVDITAIVTVADDGGSSGRLRNELKIPPPGDIRNVLAALSDVEPLVEDLFQHRFNKGNDLTGHSLGNLILAAMTNITGDFFHAVTEMSKVLNVRGKVLPAANASVVLHAEMEDGRVVSGESTIPEYGQRIKRVFLTPEQIDPLPETIDVIREADLIIIGPGSLYTSILPNLLVPKIGEEVIKAPAKKVYICNVMTQPGETLHYTAADHVKALNQHMGCGFIDTILVNSEDIPDEIKRKYEMESARPVDFDIEELKAMGLEVIRDQIVTYKNDVIRHDTHKVASLLVDLLKELEHHHHHH” here?
Answer: soluble

Question: For “MAGDPMMKKDKDTNDQKSESHMKHNDESKVPEDMTSTNEGEFKVGDKVTITAGHMPGMKGAEATVKGAYKTYAYVVSYKPTNGNEKVNNHKWVVNEEIKDAPKDGFSKDDTVKLEANHMSGMKGATANIDNVKKTTVYVVDYKSKDNGKIIKNHKWMTGNELKARLEHHHHHH”, which “soluble on expression in E. coli” value is on record?
Answer: soluble

Question: With “MAGDPMNSLIDRRLNGRNKSAVNRERFLRRYKDQIRKAVQDLIRERSISDMDQGGEINLPARDISEPSFRHGEGGDREIVHPGNREFAKGDTFDRPQGGDGGSGSQPGEGESVDQFTFSLSRAEFLNLFFEDLELPHLARTQLGDVKQQRWHRAGYTTTGSPSMLSVNRTLKASLSRRVALGVGARAALDAAEQELEAARDAGAPQAELDRLLAEVEKCAARVARVPFLDDLDLRYRNRVAVAVPMARAVMFCLMDVSGSMDEMKKDLAKRFFTLLYMFLSRKYEHVDVIFIRHTDNAEEVDEQTFFYDPKSGGTIVLSALELMHEIVQKRYSPATWNIYAAQASDGDSFGADAGKSARFLAENLLPATRYFAYIEVPDSQEARKSSLWAEYEQESASHFVMRRICERGEIFPVFHDLFKKETVLEHHHHHH” as the sequence, how does the “soluble on expression in E. coli” value read?
Answer: soluble

Question: For “MAGDPMTALKYLQAYPVALQQQVRQLIDEQRLGDYLSQRYPGRHAVQSDKALYSYALELKQEYLRNAPAIDKVLFDNRLDLTHRALGLHTTVSRVQGGKLKAKKEIRIASLFKEAAPEFLRMIVVHELAHFKESDHNKAFYKLCEHMLPGYHQLEFDLRVYLTWRDLQGKAGAPDLEHHHHHH”, which “soluble on expression in E. coli” value is on record?
Answer: soluble

Question: Which “soluble on expression in E. coli” value does the source give for “MAGDRKRGFIRPDEDYALIEPQRWGLPDYGDSKEKKAKQTAFNYDPSWVPNFDEPEEEQALELTEEQIELIKQGAYQEGLYQGQEAGFKQGYDKGKEEGLQAGHAEGLELGKAEGVSAGQEFIQQQVEVFMNLANQFAQPLELMNAQVEKQLVDMVLCLVKEVVHVEVQTNPQIILDTVKQSVEALPISGHPITLHLNPEDVAIIRSAYGEEDLDCRNWTLVSEPSLNRGDVQIEAGESSINYRMEERIKSVLHSFCGANRHQEGE” here?
Answer: not soluble

Question: With “MAGGPSALTLIARTSATGAQPLSLRARFPRTRPPMKKIPLAAADPDRLDTWVKYREGLCGECNATCCTLPVEVRIDDLIRMRLVDEFEREEPAKRIAKRLEKDGVIEHFNHKREIFTLTRMANGDCLYLDRKTRLCTIYARRPDTCRNHPRIGPRPGYCAYRPRLEHHHHHH” as the sequence, how does the “soluble on expression in E. coli” value read?
Answer: not soluble

Question: Which “soluble on expression in E. coli” value does the source give for “MAGHSKWANTRHRKAAQDAKRGKIFTKIIRELVTAAKLGGGDPDANPRLRAAVDKALSNNMTRDTLNRAIARGVGGDDDANMETIIYEGYGPGGTAIMIECLSDNRNRTVAEVRHAFSKCGGNLGTDGSVAYLFSKKGVISFEKGDEDTIMEAALEAGAEDVVTYDDGAIDVYTAWEEMGKVRDALEAAGLKADSAEVSMIPSTKADMDAETAPKLMRLIDMLEDCDDVQEVYHNGEISDEVAATL” here?
Answer: soluble

Question: With “MAGKWNVLSLLAFRPCQPALPHDNHGGGMDAIYLKLDGIEGESRIKGFENQIKLIAYNHNPTKRESGEARGTYIGGLTLTKPVDLATPGLYEHYCNGKTVKEGVLTLCRRDKGAMLPFIIYTLTNVRISRMSNHGDAEGSATETVDLVYSHIRWDIPALASKSKTRRPLHRQALWR” as the sequence, how does the “soluble on expression in E. coli” value read?
Answer: not soluble

Question: Which “soluble on expression in E. coli” value does the source give for “MAGPSDRTFSDQTEEIMQATYRALREHGYADLTIQRIADEYGKSTAAVHYYYDTKDDLLAAFLDYLLERFVDSIHDVETTDPEARLNLLLDELLVKPQENPDLSVALLEMRSQAPYKEAFSDRFRQNDEYVRYMLKAVINHGIDEGVFTDVDAEHVTRSLLTIIDGARTRAVMLDDTEELETARQTASEYADAMLQ” here?
Answer: soluble

Question: For “MAGPVFPWRDGNQFELLIDGPAFFPRMLLAIMRAEFQVDLELYLVEAGACAEAVVDALEQAARRGVRVRCLFDDYGSLAFNSALRQRLLDAGVYLRWYNRLRWKRGLRNLYRDHRKLLLVDERWAVVGGTGVTDEFWTPGEATSEWHEVMVQMQGPVVSDWQLLFDRQWQANNRRTAWRPAEGFGLPRLPKVPAQGQGMGRVAYADARQHQDILHALVRALNSGQKRVWLATPYFLPTWSVRRSLRRAASKGLDVRLLLTGPRTDHPSVRYAGHRYYPRLLRAGVRIFEYQPCFLHLKMAVVDDWVSVGSCNFDHWNLRFNLEANIEALDPPLTAAVVASFERDFAQSEEVDLAHWHARPWWRRVKQRIWGWLDRLVVNFLDRRD”, which “soluble on expression in E. coli” value is on record?
Answer: not soluble

Question: With “MAGSTLTVKDLHVSIDGKEILKGVNLEVKGGEIHAIMGPNGTGKSTLSSAIMGHPKYEVTEGSIIIDGEDVLEMEVDERAQAGLFLAMQYPSEISGVTNADFLRSAINARREEGDEISLMKFIRKLDKNMEFLEMDPEMAQRYLNEGFSGGEKKRNEILQLMMIEPKIAILDEIDSGLDIDALKVVSKGINEMRGEEFGCLMITHYQRLLNYITPDFVHVMMNGRIVKSGGPELAQRLEAEGYDWIKKELGIEDETTEQEA” as the sequence, how does the “soluble on expression in E. coli” value read?
Answer: not soluble

Question: For “MAGYVGDVAIAYDRDLGHVLFEQYASDIARRTAGKPVRDVLEVASGTGIVTRQLRNVLPGDAQLTAIDISDSMMEVARTKFLPHEQVTFQVANAVALPFDDRAFDTVVCQFGVMFFDKDKAFQETHRVLRQGGRYLFSVWDSRDYNPYASLTFEVMKQFFPSDPPRFLESTVSSFEIDPVKERLIRAGFEQISISVQRRIYDIPDIRAFARGLIFSPIINEIRERGEVDPDDIVEALVKIFIGEYGSNPTRFPMQAILFETEKPLEHHHHHH”, which “soluble on expression in E. coli” value is on record?
Answer: not soluble

Question: Which “soluble on expression in E. coli” value does the source give for “MAHHHHHHLRCAPSKLFRATPLLRVWAAEEDDASAPRTTFRNVRPGRLLRLWRQMRHRAWMLYAWDEEWVSPMQEGYLHQQRLEQVCFAPLSAYGVVPGSYCDPLLYNTKRTSPFRWHVANVQGDVVGHWYMDADELFRIEDWQPREPDDPLEMFPRPPPMLLRWDESVDEHGNRAFRYRYHYDMMGPTGKWEAYPRCPFSHLYHGGPDQHGRAEGYGFQQGHLLRCDEAEEEVLRRIMEGEDREWEMVKRTEAVQEPWSYPGKIRPRDFEGAVEHAKARYRERVRHGKETDPSEDPEYDLVQASEYVEPRDGRRAEWRHLWASGRKPGESLPFHVAFNDGLCFEGNEGGPPAHPAAHYEATPKGAPYGRYEDADAAAARAAEAAHNAACEQSLSEAMARHRRLFGDTSGAPSGPKAPLPTGCRPMRCAPGPPLPSGRSRSSGARAVGSGPVCGAGARDGESEGEGRGGEAPLGYGARACSWRRREGWV” here?
Answer: soluble

Question: Which “soluble on expression in E. coli” value does the source give for “MAHHHHHHMAADKDTPDSLGHSQTMAAEGTKGVATEQQPQASPSSSSAAAAATSMSVAETTATDATTAAASRKAPAPHDKAVAVNEGSTARVAAASSSSSTASSSASVDEQRRRRLALYGSRAMAAGGKKGPALAADPHHPSTPHGSAHGRHALTAFGARRGGELAFYIQQGGDLTSQGRYLVIGDGLMAPFMALCLRVHGLECDLAHHPSQNDLDRGTVVLTPSVTQLMGDVLNVSVPSGSVVGRVLTFDHVGNDMCDVDLNEFREKGESPTFFCCDRLKVESALMSLCRIGAHSCMVLPKPQIDKGGLEPLESGGVRVRFTSGLQQDYLGVICTARNQELVPELTITNEELQARAENAEKYRDTFSKSVRWMELCVPPLPELGKFEKRFTPGSQEIVEILTPRDAKMTVRPTMMATKLFYNVTLTIPDGTADPRLKSTSTKLFWDDVVMHWTSGVPGYISHTMFRPMFTHLQQNFTKSSALVYRTPLFLMPHWSEGGGRVIKVAHAAHGSCFDAVDVSDAQGFTDCFTLARTIAGGEDVAAFLKERRLQVMEEMDHHSRLTYYGLKERGQMAYMMSRFNMKIMRKYKKSWRSILQNYVTLMPKSIPR” here?
Answer: soluble

Question: Which “soluble on expression in E. coli” value does the source give for “MAHHHHHHMAASYLVLQRYTDLINSGDLDAAFNYLSEDIIYVTWLGVIEGKDNVVTFLRDNMRFLHFAKHFNRWRQVQHCLDADLSRHCDDSDVGGSNLFDRDGYDRQGYASFERDGMIANIVKLSMQKTRVRETVVIRDNKVVLVTLMEQL” here?
Answer: not soluble

Question: Which “soluble on expression in E. coli” value does the source give for “MAHHHHHHMADLYDVLGILHDAEDDAIAKAYRRHSMAVNPQCNPDHPDPAALEKQFKHVSQAYVVLSNPKARGIYDLYGEEGVRHGGTGAQGIPGGIDLDAIDPYAVFRSFFGVDNPFQVIGEINGLRNNRHNFFSSTAVIPKSLVKAPSIEVQLPVTLEDVYYGAVRRASWKCSFVRQGNETVVEEFFELRVPKGAHAGDKFVVDGKGDWEEGRARGDVVVVLELLPHERFRREGDDLVVRVPITLREALCGVTLTVQTMEGTDVAVLIDEIVHPKYSRRVVGQGLPRNDEPSNPRGDLIVECDTTFPGFLTLEQKSELSRILDAK” here?
Answer: not soluble

Question: For “MAHHHHHHMAEPNASGFRVIQILENYGVASSDIKKLMECGFYTVESAAYAPKKAILAVKGISENKAEKIMAECAKLVPMGFTSAVAYHEARKEIIMVTTGSREVDKLLGGGIETGSITELFGEFRTGKTQLCHTLCVTCQLPISQGGAEGMALYIDTEGTFRPERLVAVAERYKLDPEDVLANVACARAFNTDHQQQLLLQASAMMAENRFALIIVDSATALYRTDYSGRNELAARQMHLGKFLRSLHNLAEEYGVAVVVTNQVVANVDGSAQMFQADSKKPIGGHIMAHASTTRLSLRKGRGEQRIIKVYDSPCLAEAEAIFGIYDDGVGDARD”, which “soluble on expression in E. coli” value is on record?
Answer: not soluble

Question: Which “soluble on expression in E. coli” value does the source give for “MAHHHHHHMAGSIRYFIDPRGALSPCAPAESSTPRAGGTKVPRTAEAKSSPNSPPELSSAVPLDGLCRAYEAADGRSGSAFLQVYSVGAHGLLSPEAKAVITGCTMAALRSRLSHLLGLLPHERLNGADSALGMSAVAVLNRYCRATAALPPPSPSAMQPRCGTDTDGGGMRGRGWVVTWALELVLCVAASRIVAGPPLATACPPLCVSDCGDVIMASLHFGLGVRLQRDAVAHHDERTIASSTPLTSAAERCPRYAALSVQLTECTPASSHPLDVRCAVDVTRVIYVNHIRSAQAHAEDGTDAFQRLARCEGGVSDPLSVATARDAWAEALQSYQASAIASQGGVLFVLTHDLSVQSGPAALLPLTVREERSRSHAAEMSHDVAFPPALRDHVLASVRVRSAPVYFNHILLCQAWSSDDVVAEAHARHWAEKLANDGALAPARVAVEWRASLLVSRAKGGAAVTSDAGGSQTLAPTPLQWVLYTARRQLVVAVANRSQVVLTGRRRGLDRTAAEATTKAAQFSPSALRALAEQCVKALPVARGLLGWHCPWPVPSCLQNTDTCTAIPSAAAVEEVLWTLRMLGKLRWRAAQLYEAAGDSAEQHRQLRALRADVQRWSSRRRARTLAADGTTLACEATAWTPTVEDVVCHVDDGDWGALTKELSSMLPPA” here?
Answer: not soluble

Question: With “MAHHHHHHMANISPNSDGDSFVGADTAKQLSDIQKKLNDLKQRREELEEQRRRILGASDQSSSRPRSLRGPTQNRRRHSQPSQRTLPLRPPRPPISDHSIRIPNEKERQQTAQRTPYLEMKESMRRSWSRDSSLVMGSFLMEDNPRARTFTRERRFIPPPECNGIYFLGTEMELMIRNKNVAPSQRSGRRDNTPYRWNDIIDGVTPGPGAYTPLFSKVSKPSRRAQLF” as the sequence, how does the “soluble on expression in E. coli” value read?
Answer: not soluble
